Experimental data reported in patent publication US12534533B2, “Anti-chemokine like receptor 1 humanized antibodies and their therapeutic applications” (OSE IMMUNOTHERAPEUTICS, priority 2019, dated 2026).

Legend:
AK-7 cells = assay: Mesothelioma model survival; format: in vivo, mice; conditions: 1 mg/kg three times a week for 3 weeks starting at d4; vs control antibody; FIG. 30
Method: AK-7 cells (3M) were injected in the pleural cavity and mice received either Iso ctrl or 2G1 three times a week for 3 weeks starting at d4 at 1 mg/kg.

MC38 CRC cell line = assay: CRC model, tumor cell inoculated (MC38 subcutaneously); format: in vivo, mice; conditions: FIG. 31A
Method: Tumor inoculation was performed with 0.5M of MC38 CRC cell line subcutaneously. Mice were injected three times a week with 1 mg/kg of 2G1 or Ctrl Ab for 3 weeks starting at d4 after tumor induction. Cyclophosphamide was injected I.P. once at 100 mg/kg. Tumor development was assessed three times a week and survival curves were established when mice developed a tumor >1000 mm3.

[1] = test system: CCR7 expression at the surface of pro-inflammatory macrophages M1; assay: CCR7 expression on M1 macrophages with coated antibodies; format: cell-based, human; conditions: antibody coated on plate, 48 h, flow cytometry; vs isotype control; FIG. 25, FIG. 35
Method: FIG. 25. Inhibition of CCR7 expression on M1 macrophages cells in vitro with anti-ChemR23 antibodies coated. 2G1 and all humanized 2G1 variants (HALA, HCLC, HCLD, HDLC and HDLD) were immobilized on plate. Isotype control were added as controls. Two isotypes which prevent FcRγ binding, i.e., 2G1-N297A (2G1 wt mutated in N297A to reduce FcγR binding), and 2G4 (wt with isotype IgG4mutated in S228P to stabilise hinge region) were also added. Pro-inflammatory macrophages M1 were added on coated plate for 48 h, and CCR7 expression at the surface of the macrophages was measured by flow cytometry.
FIG. 35—Inhibition of CCR7 expression on M1 macrophages cells in vitro with anti-ChemR23 antibody coated. The humanized 2G1 variant HEF-LD-T52S was immobilized on plate. Isotype control were added as controls. Pro-inflammatory macrophages M1 were added on coated plate, and CCR7 expression at the surface of the macrophages was measured by flow cytometry.
MATERIAL AND METHODS. […]
RESULTS. […] Pro-inflammatory macrophages M1 were added on coated plate for 48 h, and CCR7 expression at the surface of the macrophages was measured by flow cytometry.
The humanized 2G1 variant HEF-LD-T52S was immobilized on plate. […] Pro-inflammatory macrophages M1 were added on coated plate for 48 h, and CCR7 expression at the surface of the macrophages was measured by flow cytometry. […]

colitis induced by DSS = assay: acute inflammatory colitis model induced by DSS; format: in vivo, mice
Method: FIG. 2. Effect of an anti-CMKLR1 antibody on a mice acute inflammatory colitis model induced by DSS. Mice were injected after 6 days of DSS induction with isotype control hIgG1 (10 μg per mouse) (x), RvE1 (1 μg per mouse) daily (●), or 2G1 antibody (10 μg per mouse) three times (□) for 5 days. Wild type mice, not treated, are represented by an ▾. A. Animal weight loss. B. Animal stool score C. Colon length. D. Resolution index.
Colitis was induced in 8-10 weeks-old-C57Bl/6 male mice by adding 2% (wt/vol) of DSS to the sterile drinking ad libitum water for 6 days. Treatments were injected intra-peritoneally: Isotype control hIgG1 (10 μg per mouse), RvE1 (1 μg per mouse) daily, or 2G1 antibody (10 μg per mouse) three times for 5 days. Colitis follow-up consisting of body weight and stool score (0: normal stool; 4: blood in stool) parameters were performed daily. When mice were euthanized, colon length representing the pathology severity was measured. Resolution index was determined in the different conditions as described in Bannenberg et al., 2005.

[2] = target: T1, CMKLR1 receptor (CHO-K1 CMKLR1 Gi cells) (Homo sapiens, UniProt Q99788); assay: competition with Chemerin in the production of cAMP by CMKLR1 receptor; format: cell-based; conditions: antibody 1 μM to 1 nM, chemerin 2 nM; FIG. 18A
T1 construct: host or cells: CHO-K1
T1 sequence (Q99788 1-373): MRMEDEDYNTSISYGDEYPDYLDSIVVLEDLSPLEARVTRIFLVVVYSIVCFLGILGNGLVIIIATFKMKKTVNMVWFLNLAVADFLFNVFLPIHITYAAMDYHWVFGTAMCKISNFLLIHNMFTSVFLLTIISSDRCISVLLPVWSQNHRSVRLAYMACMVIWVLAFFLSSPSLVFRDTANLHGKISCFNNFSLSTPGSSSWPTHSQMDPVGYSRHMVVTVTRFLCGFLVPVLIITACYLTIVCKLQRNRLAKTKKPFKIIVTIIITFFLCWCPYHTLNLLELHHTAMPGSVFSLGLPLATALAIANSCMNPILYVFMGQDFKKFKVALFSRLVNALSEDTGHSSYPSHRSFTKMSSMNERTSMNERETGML
Method: The day before the experiment CHO-K1 CMKLR1 Gi cells (Discover'X ref 95-0080C2) were plated in pre-warmed cell reagent then plated in a 96-well plate at 100 μl/well of cells as (Discover'X ref 15-103) and incubated 24 hours at 37° C., in a 5% CO2 humidified incubator for 24 hours.
For the detection cAMP, antibody reagent and cAMP working detection solution was added to the plate for 1 hour at room temperature, then cAMP solution A was added, and cells incubated 3 hours at room temperature in the dark. Bioluminescence was read with a plate reader with 0.5s integration.

B1: 2G1: parental chimeric anti-CMKLR1 antibody: heavy chain variable domain SEQ ID No. 37, light chain variable domain SEQ ID No. 49 (antibody, V domains shown)
VH: EVQLVASGGGLVQPGGSLKLSCAASGFTFSSYGMSWVRQTPDRRLELVATINRYGGSTYYPDSVKGRFTISRDNAKNTLYLQMSSLKSEDTAMYYCPRLIYYGNEGDSWGQGTTLTVSS
VL: QIVLTQSPAIMSASPGEKVTMTCSASSSVSFMHWYQQKSGTSPKRWIYDTTKLTSGVPARFSGSGSGTFYSLTISSMEAEDAATYYCQQWNSKPPLTFGPGTKLELKR
AK-7 cells
  survival rate: higher survival rate
MC38 CRC cell line; 1 mg/kg three times a week for 3 weeks starting at d4, vs control antibody
  tumor volume: reduced
MC38 CRC cell line; in several cases
  remission: complete remission
[1]
  expression of CCR7 at the surface of pro-inflammatory macrophages (M1): able to decrease expression of CCR7
Colitis induced by DSS; 0: normal stool, 4: blood in stool, FIG. 2B
  stool score: significantly better
Colitis induced by DSS; 10 μg per mouse i.p. three times for 5 days, vs control antibody or RvE1, FIG. 2A
  Animal weight loss: lost significantly less weight
[2]
  Chemerin-induced inhibition of forskolin-dependent cAMP production: could not revert this inhibition of production
